This note sets out measurements from patent publication EP4631959A2, “NOVEL MINIGASTRIN-DERIVED CHOLECYSTOKININ 2 RECEPTOR BINDING MOLECULES FOR IMAGING AND TARGETED RADIOTHERAPY” (priority 2022, dated 2024).

This data set deals with T1, Human serum albumin (HSA) (Homo sapiens, UniProt P02768).
T1 construct: purchased Daicel, Tokyo, Japan H13H-2433
Nature of the data set: Determination of HSA binding on a Chiralpak HSA column. The class given is in vitro ADME. The note with it: Tab. 8; metal not stated (Fig. 18: ^natLu). In short, it runs like this:
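Retention on an HSA column with a 50 mM NH4OAc (pH 6.9)/isopropanol gradient at 0.5 mL/min, rt; samples run at 0.5 mg/mL in A/B (1/1). Binding derived by non-linear regression against nine reference compounds spanning 13 to 99% HSA binding.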

Starred links: 1 amine or outer side, 2 acyl side, 3 side chain; linkers in the order of their positions; H or OH if unused. Non-standard residues stand in square brackets, D forms with d. Residues, ends and D or L forms follow the SMILES beside them. *: point of attachment. Benzoyl(4-SiFtBu2) = CC(C)(C)[Si](F)(c1ccc(C(=O)*)cc1)C(C)(C)C; DOTA = O=C(O)CN1CCN(CC(=O)O)CCN(CC(=O)*)CCN(CC(=O)O)CC1; d(γGlu) = O=C(O)[C@@H](CCC(=O)[*:2])N[*:1]; 1Nal = N[C@@H](Cc1cccc2ccccc12)C(=O)O; Hyp = O=C(O)[C@@H]1C[C@@H](O)CN1; NMeNle = CCCC[C@H](NC)C(=O)O; PEG4 = NCCOCCOCCOCCOCCC(=O)O; dDap = NC[C@@H](N)C(=O)O

T1 sequence (P02768 25-609): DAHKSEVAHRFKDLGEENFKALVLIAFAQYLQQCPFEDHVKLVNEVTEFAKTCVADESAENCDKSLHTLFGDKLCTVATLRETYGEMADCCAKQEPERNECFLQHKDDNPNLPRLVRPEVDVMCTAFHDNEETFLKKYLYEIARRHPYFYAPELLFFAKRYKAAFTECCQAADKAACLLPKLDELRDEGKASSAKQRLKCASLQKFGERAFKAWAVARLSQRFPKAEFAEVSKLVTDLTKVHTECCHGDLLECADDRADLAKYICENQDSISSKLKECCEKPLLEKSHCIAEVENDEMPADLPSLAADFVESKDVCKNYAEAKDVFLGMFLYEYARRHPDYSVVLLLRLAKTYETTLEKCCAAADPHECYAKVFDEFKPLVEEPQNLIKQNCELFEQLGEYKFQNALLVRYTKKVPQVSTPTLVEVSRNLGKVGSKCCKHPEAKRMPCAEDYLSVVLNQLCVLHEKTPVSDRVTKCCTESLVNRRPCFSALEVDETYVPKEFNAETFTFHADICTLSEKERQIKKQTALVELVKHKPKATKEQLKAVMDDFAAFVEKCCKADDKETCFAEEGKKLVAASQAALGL

Regarding `CCCC[C@@H](C(=O)N[C@@H](CC(=O)O)C(=O)N[C@@H](Cc1cccc2ccccc12)C(N)=O)N(C)C(=O)[C@H](Cc1c[nH]c2ccccc12)NC(=O)CCOCCOCCOCCOCCNC(=O)CC[C@@H](NC(=O)[C@@H]1C[C@@H](O)CN1C(=O)[C@@H]1C[C@@H](O)CN1C(=O)[C@@H]1C[C@@H](O)CN1C(=O)[C@@H]1C[C@@H](O)CN1C(=O)[C@@H]1C[C@@H](O)CN1C(=O)[C@@H]1C[C@@H](O)CN1C(=O)CC[C@@H](NC(=O)[C@@H](CNC(=O)c1ccc([Si](F)(C(C)(C)C)C(C)(C)C)cc1)NC(=O)CN1CCN(CC(=O)O)CCN(CC(=O)O)CCN(CC(=O)O)CC1)C(=O)O)C(=O)O` [DOTA-rhCCK-84, DOTA-dap(SiFA)-γ-glu-(Hyp)6-γ-glu-(PEG)3-Trp-(N-Me)Nle-Asp-1-Nal-NH2] ({DOTA}-[dDap](Benzoyl(4-SiFtBu2))[d(γGlu)][Hyp][Hyp][Hyp][Hyp][Hyp][Hyp][d(γGlu)][PEG4]W[NMeNle]D[1Nal]-NH2), the “HSA binding [%]” value is listed as 90.0%.
